# Assay results reported in publication PMC3045386, “Insights into the Function of the CRM1 Cofactor RanBP3 from the Structure of Its Ran-Binding Domain” (PLoS ONE, 2011).
# What was measured:
# RanQ69L:GTP [1] = molecular target: T1, RanQ69L:GTP (human, UniProt P62826 1-216, Q69L); assay: ITC; 530 µM RanQ69L:GTP titrated into 48 µM full-length RanBP3; 25°C; 300 mM NaCl, 5 mM MgCl2, 10 mM TRIS pH 7.4; single-site binding model; Kd,obs; details: both partners purified
# RanQ69L:GTP [2] = molecular target: T1, RanQ69L:GTP; assay: ITC; 800 µM RanBP3 RBD (residues 310–454) titrated into 70 µM RanQ69L:GTP; 25°C; 300 mM NaCl, 5 mM MgCl2, 10 mM TRIS pH 7.4; single-site binding model; Kd,obs; details: both partners purified
Kd (RanQ69L:GTP [1]) [µM],Kd (RanQ69L:GTP [2]) [µM],stoichiometry N (RanQ69L:GTP [2]),Binder
15 ± 3,,,Human full-length RanBP3 (residues 1–499; isoform B) (natural protein) MADLANEEKPAIAPPVFVFQKDKGQKRSAGGSSPEGGEDSDREDGNYCPPVKRERTSSLTQFPPSQSEERSSGFRLKPPTLIHGQAPSAGLPSQKPKEQQRSVLRPAVLQAPQPKALSQTVPSSGTNGVSLPADCTGAVPAASPDTAAWRSPSEAADEVCALEEKEPQKNESSNASEEEACEKKDPATQQAFVFGQNLRDRVKLINESVDEADMENAGHPSADTPTATNYFLQYISSSLENSTNSADASSNKFVFGQNMSERVLSPPKLNEVSSDANRENAAAESGSESSSQEATPEKESLAESAAAYTKATARKCLLEKVEVITGEEAESNVLQMQCKLFVFDKTSQSWVERGRGLLRLNDMASTDDGTLQSRLVMRTQGSLRLILNTKLWAQMQIDKASEKSIRITAMDTEDQGVKVFLISASSKDTGQLYAALHHRILALRSRVEQEQEAKMPAPEPGAAPSNEEDDSDDDDVLAPSGATAAGAGDEGDGQTTGST
,14 ± 0.3,0.93 ± 0.01,RanBP3 RBD (residues 310–454) (domain or fragment) KATARKCLLEKVEVITGEEAESNVLQMQCKLFVFDKTSQSWVERGRGLLRLNDMASTDDGTLQSRLVMRTQGSLRLILNTKLWAQMQIDKASEKSIRITAMDTEDQGVKVFLISASSKDTGQLYAALHHRILALRSRVEQEQEAK
